These results are taken from patent US20180000768A1, “INTESTINAL FXR AGONISM ENHANCES GLP-1 SIGNALING TO RESTORE PANCREATIC BETA CELL FUNCTIONS” (Salk Institute for Biological Studies, priority 2015, published 2018).

For assay [1], the system named is Leptin-deficient ob/ob mice. Put plainly: metabolic phenotype and glucose homeostasis of treated ob/ob mice. The class given is in vivo, mouse. The settings on record: FGF15 treatment for 2 weeks. As for the experimental part:
Leptin-deficient ob/ob mice were purchased from Jackson laboratory (stock no. 000632). Each mouse consumed 100 mg per kg of body weight Fex (in corn oil) per day by oral gavage for 5 weeks. For in vivo analog study, each mouse consumed 50 mg per kg of body weight Fex-D (in corn oil) per day by oral gavage for 14 days. For GLP-1 receptor antagonist study, each mouse was daily treated with 100 μg per kg of body weight Exendin 9-39 amide (Abcam) via intraperitoneal injection for 2 weeks. For INT-777 study, each mouse was daily gavaged with 60 mg per kg of body weight INT-777 (in corn oil) for 5 weeks. […] Core body temperature was measured with a clinical rectal thermometer (Thermalert model TH-5; Physitemp). […] Tail blood was drawn at indicated time intervals, and blood glucose level was measured with a One Touch Ultra glucometer (LifeScan). Body composition was measured with Echo MRI-100 body composition analyzer (Echo Medical Systems). […]
Real-time metabolic analyses were conducted in a Comprehensive Lab Animal Monitoring System (Columbus Instruments). CO2 production, O2 consumption, RQ (relative rates of carbohydrate versus fat oxidation) and ambulatory counts were determined for 4 consecutive days and nights, with at least 24-h for adaptation before data recording. […]

In the next assay the test system is ob/ob mice. Put plainly: gene expression (RNA-Seq, QPCR) in tissues of treated ob/ob mice. The class given is in vivo, mouse. As to conditions: FGF15 injection. As for the experimental part:
Total RNA was isolated from cell pellets treated with RNAlater using the RNA mini kit (Qiagen) and treated with DNaseI (Qiagen) for 30 minutes at room temperature. Sequencing libraries were prepared from 100-500 ng total RNA using the TruSeq RNA Sample Preparation Kit v2 (Illumina) according to the manufacturer's protocol. Briefly, mRNA was purified, fragmented, and used for first-, then second-strand cDNA synthesis followed by adenylation of 3′ ends. Samples were ligated to unique adapters and subjected to PCR amplification. Mulitplexed libraries were then validated using the 2100 BioAnalyzer (Agilent), normalized, and pooled for sequencing. RNA-Seq libraries prepared from two biological replicates for each experimental condition were sequenced on the Illumina HiSeq 2500 using bar-coded multiplexing and a 100 bp read length.
Image analysis and base calling were performed with Illumina CASAVA-1.8.2. This yielded a median of 29.9M usable reads per sample. Short read sequences were mapped to a UCSC mm9 reference sequence using the RNA-seq aligner STAR. Known splice junctions from mm9 were supplied to the aligner and de novo junction discovery was also permitted. […] Transcript expression was calculated as gene-level relative abundance in fragments per kilobase of exon model per million mapped fragments and employed correction for transcript abundance bias. […]

For the next assay, the system named is isolated islets. Put plainly: gene expression after direct ex vivo treatment of isolated islets. The settings on record: 24 hours ex vivo, XL335 1 μM, Fex 1 μM. The class given is cell-based, mouse. The protocol: Leptin-deficient ob/ob mice were treated daily with vehicle, Fex, or the analogue Fex-D (50 mg/kg) via P.O. for 14 days (A) Chemical structures of fexaramine and Fex-D (B) Schematic of the experimental design (C) Serum glucose levels (D) Glucose tolerance test (E) Insulin secretion in vivo (F) GLP-1 secretion in vivo (G) Heatmap showing hierarchal clustering of gene expression changes in islet induced by Fex (100 mg/kg, 4 wks) and FexD (50 mg/kg, 2 weeks) treatment in ob/ob mice (in vivo); by treatment of islets with XL335 (1 μM), Fex (1 μM), mFgf15 and hFgf19 (24 hours ex vivo); and mFgf15 (0.15 mg/kg, 2 weeks) and INT777 (Tgr5, 60 mg/kg, 4 weeks) treatment of ob/ob mice (in vivo). Gene expression was measured by RNA-Seq and changes are expressed as Z-score. (H) Ven diagram of changes in gene expression in pancreatic islets induced by FEX (100 mg/kg for 5 weeks) and FEX-D (50 mg/kg for 14 days). […] Data represent the mean±STD. Statistical analysis was performed with the Student's t test. *p<0.05, **p<0.01.
Next, primary islets were isolated from mice treated by Fex-D to compare gene expression changes.

B1: FGF15: FGF15 protein injected in ob/ob mice or applied to islets (protein, UniProt O35622 26-218, looked up)
Fibroblast growth factor 15: RPLAQQSQSVSDEDPLFLYGWGKITRLQYLYSAGPYVSNCFLRIRSDGSVDCEEDQNERNLLEFRAVALKTIAIKDVSSVRYLCMSADGKIYGLIRYSEEDCTFREEMDCLGYNQYRSMKHHLHIIFIQAKPREQLQDQKPSNFIPVFHRSFFETGDQLRSKMFSLPLESDSMDPFRMVEDVDHLVKSPSFQK
Regarding B1, in assay [1], the blood glucose levels result is listed as “significantly reduced”. In assay [1] (soleus), the “glucose uptake in the skeletal muscle” value is “without affecting”. Moreover, in the assay with ob/ob mice, the “reg family gene expression in islets” value is reported as “upregulated”. Besides, the “transcriptional changes seen in islets in vivo with Fex and Fex-D” value in the assay on isolated islets is recorded as “not observed”.
